The target in the assay is T1, CEPR2^KD-His (Arabidopsis thaliana, UniProt Q9C7T7 642-977).
T1 sequence (looked up): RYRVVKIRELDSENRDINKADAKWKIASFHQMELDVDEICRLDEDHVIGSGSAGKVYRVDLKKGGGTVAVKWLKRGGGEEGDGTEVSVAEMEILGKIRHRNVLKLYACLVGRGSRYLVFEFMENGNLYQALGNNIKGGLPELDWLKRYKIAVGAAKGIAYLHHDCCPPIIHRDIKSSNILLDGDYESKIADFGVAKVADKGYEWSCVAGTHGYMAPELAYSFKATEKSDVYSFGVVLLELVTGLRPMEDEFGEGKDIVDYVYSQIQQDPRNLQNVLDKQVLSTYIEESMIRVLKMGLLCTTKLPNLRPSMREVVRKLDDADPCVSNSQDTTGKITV
Briefly: pull-down.

B1: NRT1.2^loop-GST (domain or fragment, Arabidopsis thaliana, UniProt Q8H157 232-346, looked up)
chain: SGSRFYRNKIPCGSPLTTILKVLLAASVKCCSSGSSSNAVASMSVSPSNHCVSKGKKEVESQGELEKPRQEEALPPRAQLTNSLKVLNGAADEKPVHRLLECTVQQVEDVKIVLK
Consider B1, for which the binding result is “binds”.

Source of the values: article doi:10.1101/2020.02.18.953711 (bioRxiv, 2020).
